Results from the supplement of paper PMC9112550, “Optimization of the antimicrobial peptide Bac7 by deep mutational scanning” (BMC Biology, 2022).

Test system: Escherichia coli TOP10
Test: shrunken log2 fold change of peptide-encoding DNA abundance (4.5 h post-induction vs induction); higher = less antimicrobial activity (less host growth inhibition)
Settings: time post-induction: 4.5 h; library: site-saturation at positions 5, 18, 19, 20
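Also: peptides expressed intracellularly from a pBAD plasmid library in pooled LB shake-flask culture, induced with 0.3% L-arabinose, DNA abundance read by NGS, three biological replicates, DESeq2 with apeglm shrinkage.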

Sequence	shrunken log2 fold change
RRIRARPPRLPRPRPRPKRVPRP	0.455
RRIRPRPPRLPRPRPRPYILPRP	-0.588
RRIRFRPPRLPRPRPRPNMYPRP	-0.712
RRIRYRPPRLPRPRPRPAMTPRP	0.165
RRIRDRPPRLPRPRPRPFNYPRP	-0.048
RRIRTRPPRLPRPRPRPENRPRP	-0.0266
RRIRWRPPRLPRPRPRPNQCPRP	-0.384
RRIRPRPPRLPRPRPRPRADPRP	0.335
RRIRRRPPRLPRPRPRPLKSPRP	-0.215
RRIRKRPPRLPRPRPRPGQWPRP	0.181
RRIRRRPPRLPRPRPRPRCTPRP	0.0974
RRIRARPPRLPRPRPRPFLSPRP	-0.107
RRIRSRPPRLPRPRPRPPVTPRP	-0.0798
RRIRRRPPRLPRPRPRPIFWPRP	0.821
RRIRMRPPRLPRPRPRPFLDPRP	-0.198
RRIRDRPPRLPRPRPRPGYMPRP	-0.649
RRIRQRPPRLPRPRPRPCCEPRP	-0.256
RRIRWRPPRLPRPRPRPKHCPRP	0.0806
RRIRVRPPRLPRPRPRPQGWPRP	0.522
RRIRPRPPRLPRPRPRPSHCPRP	-0.666
RRIRTRPPRLPRPRPRPFTCPRP	0.0121
RRIRCRPPRLPRPRPRPLFWPRP	0.153

Sequence	shrunken log2 fold change
RRIRDRPPRLPRPRPRPAFPPRP	-0.0705
RRIRDRPPRLPRPRPRPAVIPRP	-0.0132
RRIRWRPPRLPRPRPRPEDPPRP	0.157
RRIRARPPRLPRPRPRPEIVPRP	0.553
RRIRMRPPRLPRPRPRPCILPRP	0.053
RRIRCRPPRLPRPRPRPVGSPRP	0.0443
RRIRSRPPRLPRPRPRPWVVPRP	-0.00703
RRIRERPPRLPRPRPRPADGPRP	-0.0752
RRIRRRPPRLPRPRPRPNQDPRP	0.125
RRIRSRPPRLPRPRPRPTGWPRP	1.01
RRIRDRPPRLPRPRPRPGYFPRP	-1.25
RRIRLRPPRLPRPRPRPNCVPRP	0.138
RRIRQRPPRLPRPRPRPPPKPRP	0.876
RRIRERPPRLPRPRPRPVCPPRP	-0.162
RRIRSRPPRLPRPRPRPNRSPRP	-0.0737
RRIRYRPPRLPRPRPRPYNVPRP	-0.0198
RRIRSRPPRLPRPRPRPRDHPRP	0.0497
RRIRTRPPRLPRPRPRPEEPPRP	0.0165
RRIRYRPPRLPRPRPRPWWIPRP	-0.00327
RRIRDRPPRLPRPRPRPRRDPRP	0.492
RRIRARPPRLPRPRPRPRHPPRP	0.383
RRIRDRPPRLPRPRPRPNIMPRP	-0.367

Sequence	shrunken log2 fold change
RRIRQRPPRLPRPRPRPCQWPRP	-0.205
RRIRYRPPRLPRPRPRPCVCPRP	-1.24
RRIRNRPPRLPRPRPRPVCSPRP	-0.19
RRIRWRPPRLPRPRPRPRWEPRP	0.238
RRIRPRPPRLPRPRPRPQFPPRP	0.0341
RRIRQRPPRLPRPRPRPKHDPRP	-0.121
RRIRVRPPRLPRPRPRPTRLPRP	0.568
RRIRYRPPRLPRPRPRPDTAPRP	-0.343
RRIRERPPRLPRPRPRPNWDPRP	-0.125
RRIRIRPPRLPRPRPRPELNPRP	0.12
RRIRVRPPRLPRPRPRPTKYPRP	-0.523
RRIRPRPPRLPRPRPRPYFDPRP	-0.561
RRIRLRPPRLPRPRPRPQWVPRP	-0.0367
RRIRSRPPRLPRPRPRPAMEPRP	-0.0044
RRIRDRPPRLPRPRPRPCGNPRP	0.104
RRIRERPPRLPRPRPRPEHMPRP	-0.0272
RRIRGRPPRLPRPRPRPGTPPRP	0.919
RRIRQRPPRLPRPRPRPNHVPRP	0.0349
RRIRFRPPRLPRPRPRPYDWPRP	-0.147
RRIRTRPPRLPRPRPRPESYPRP	-0.0242
RRIRRRPPRLPRPRPRPLRMPRP	1.2
RRIRGRPPRLPRPRPRPNAVPRP	0.924

Sequence	shrunken log2 fold change
RRIRLRPPRLPRPRPRPWLGPRP	0.181
RRIRERPPRLPRPRPRPCVVPRP	0.0441
RRIRQRPPRLPRPRPRPKTYPRP	-0.241
RRIRYRPPRLPRPRPRPYPHPRP	-0.112
RRIRYRPPRLPRPRPRPVYHPRP	-0.586
RRIRNRPPRLPRPRPRPICMPRP	-0.195
RRIRYRPPRLPRPRPRPVQFPRP	-0.00142
RRIRHRPPRLPRPRPRPFWIPRP	-0.364
RRIRCRPPRLPRPRPRPFQQPRP	-0.00107
RRIRYRPPRLPRPRPRPLWPPRP	-0.135
RRIRLRPPRLPRPRPRPRWNPRP	-0.0729
RRIRNRPPRLPRPRPRPLDMPRP	-0.0766
RRIRSRPPRLPRPRPRPELYPRP	-0.00809
RRIRVRPPRLPRPRPRPWRGPRP	0.378
RRIRCRPPRLPRPRPRPNAAPRP	0.975
RRIRMRPPRLPRPRPRPVIGPRP	-0.0424
RRIRIRPPRLPRPRPRPYMDPRP	-0.315
RRIRYRPPRLPRPRPRPFWLPRP	-0.0817
RRIRFRPPRLPRPRPRPNALPRP	-0.347
RRIRWRPPRLPRPRPRPEKMPRP	-0.0237
RRIRLRPPRLPRPRPRPRICPRP	-0.237
RRIRERPPRLPRPRPRPFQTPRP	0.11

Sequence	shrunken log2 fold change
RRIRHRPPRLPRPRPRPGRNPRP	-0.31
RRIRVRPPRLPRPRPRPLGFPRP	0.196
RRIRVRPPRLPRPRPRPHWYPRP	-0.463
RRIRGRPPRLPRPRPRPNYIPRP	-0.099
RRIRKRPPRLPRPRPRPSWLPRP	0.303
RRIRFRPPRLPRPRPRPERKPRP	0.0154
RRIRSRPPRLPRPRPRPSKIPRP	-0.378
RRIRDRPPRLPRPRPRPQHYPRP	-0.856
RRIRDRPPRLPRPRPRPTDLPRP	-0.0718
RRIRARPPRLPRPRPRPTRQPRP	0.982
RRIRERPPRLPRPRPRPKTSPRP	-0.102
RRIRIRPPRLPRPRPRPPPHPRP	0.392
RRIRARPPRLPRPRPRPYLDPRP	0.118
RRIRVRPPRLPRPRPRPCMEPRP	-1
RRIRWRPPRLPRPRPRPHDNPRP	-0.114
RRIRCRPPRLPRPRPRPNPTPRP	0.211
RRIRERPPRLPRPRPRPNVHPRP	-0.344
RRIRGRPPRLPRPRPRPPNIPRP	0.083
RRIRGRPPRLPRPRPRPTCVPRP	1.04
RRIRLRPPRLPRPRPRPVMSPRP	-0.152
RRIRPRPPRLPRPRPRPRTCPRP	0.322
